Biological target: MCM8-9 complex (FLAG-tagged MCM8 and MBP-tagged MCM9), wild type (human) (UniProt Q9UJA3)
Experiment: mass photometry; MCM8-9 preincubated with HROB (both 1 μM) 10 min at room temperature in 25 mM Tris-HCl pH 7.5, 3 mM EDTA, 50 mM NaCl, then rapidly diluted to 200 nM; complex largely fell apart upon dilution

Sequence of MCM8-9 complex (FLAG-tagged MCM8 and MBP-tagged MCM9), wild type (human) (Q9UJA3 whole entry, chain 1 of 2): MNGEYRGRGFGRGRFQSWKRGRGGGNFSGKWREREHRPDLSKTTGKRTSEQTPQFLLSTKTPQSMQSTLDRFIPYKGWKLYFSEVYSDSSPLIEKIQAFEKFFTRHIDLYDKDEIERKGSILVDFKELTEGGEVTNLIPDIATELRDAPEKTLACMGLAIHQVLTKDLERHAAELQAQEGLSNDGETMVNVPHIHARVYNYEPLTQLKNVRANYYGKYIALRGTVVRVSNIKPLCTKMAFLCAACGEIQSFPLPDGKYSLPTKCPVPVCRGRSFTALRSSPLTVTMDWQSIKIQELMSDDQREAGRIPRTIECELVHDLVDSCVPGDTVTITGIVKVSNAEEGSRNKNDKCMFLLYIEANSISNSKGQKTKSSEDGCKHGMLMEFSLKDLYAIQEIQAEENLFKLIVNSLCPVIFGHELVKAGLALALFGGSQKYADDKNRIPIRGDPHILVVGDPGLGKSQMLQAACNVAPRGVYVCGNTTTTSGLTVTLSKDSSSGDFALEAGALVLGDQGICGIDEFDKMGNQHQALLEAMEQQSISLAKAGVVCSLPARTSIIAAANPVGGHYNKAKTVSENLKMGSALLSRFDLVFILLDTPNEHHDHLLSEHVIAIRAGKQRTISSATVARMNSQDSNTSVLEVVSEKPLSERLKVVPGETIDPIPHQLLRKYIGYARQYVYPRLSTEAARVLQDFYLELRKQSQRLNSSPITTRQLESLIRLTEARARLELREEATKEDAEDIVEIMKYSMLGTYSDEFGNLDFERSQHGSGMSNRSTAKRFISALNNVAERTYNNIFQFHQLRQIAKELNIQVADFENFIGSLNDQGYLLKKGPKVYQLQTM
Sequence of MCM8-9 complex (FLAG-tagged MCM8 and MBP-tagged MCM9), wild type (human) (Q9NXL9 whole entry, chain 2 of 2, further chain): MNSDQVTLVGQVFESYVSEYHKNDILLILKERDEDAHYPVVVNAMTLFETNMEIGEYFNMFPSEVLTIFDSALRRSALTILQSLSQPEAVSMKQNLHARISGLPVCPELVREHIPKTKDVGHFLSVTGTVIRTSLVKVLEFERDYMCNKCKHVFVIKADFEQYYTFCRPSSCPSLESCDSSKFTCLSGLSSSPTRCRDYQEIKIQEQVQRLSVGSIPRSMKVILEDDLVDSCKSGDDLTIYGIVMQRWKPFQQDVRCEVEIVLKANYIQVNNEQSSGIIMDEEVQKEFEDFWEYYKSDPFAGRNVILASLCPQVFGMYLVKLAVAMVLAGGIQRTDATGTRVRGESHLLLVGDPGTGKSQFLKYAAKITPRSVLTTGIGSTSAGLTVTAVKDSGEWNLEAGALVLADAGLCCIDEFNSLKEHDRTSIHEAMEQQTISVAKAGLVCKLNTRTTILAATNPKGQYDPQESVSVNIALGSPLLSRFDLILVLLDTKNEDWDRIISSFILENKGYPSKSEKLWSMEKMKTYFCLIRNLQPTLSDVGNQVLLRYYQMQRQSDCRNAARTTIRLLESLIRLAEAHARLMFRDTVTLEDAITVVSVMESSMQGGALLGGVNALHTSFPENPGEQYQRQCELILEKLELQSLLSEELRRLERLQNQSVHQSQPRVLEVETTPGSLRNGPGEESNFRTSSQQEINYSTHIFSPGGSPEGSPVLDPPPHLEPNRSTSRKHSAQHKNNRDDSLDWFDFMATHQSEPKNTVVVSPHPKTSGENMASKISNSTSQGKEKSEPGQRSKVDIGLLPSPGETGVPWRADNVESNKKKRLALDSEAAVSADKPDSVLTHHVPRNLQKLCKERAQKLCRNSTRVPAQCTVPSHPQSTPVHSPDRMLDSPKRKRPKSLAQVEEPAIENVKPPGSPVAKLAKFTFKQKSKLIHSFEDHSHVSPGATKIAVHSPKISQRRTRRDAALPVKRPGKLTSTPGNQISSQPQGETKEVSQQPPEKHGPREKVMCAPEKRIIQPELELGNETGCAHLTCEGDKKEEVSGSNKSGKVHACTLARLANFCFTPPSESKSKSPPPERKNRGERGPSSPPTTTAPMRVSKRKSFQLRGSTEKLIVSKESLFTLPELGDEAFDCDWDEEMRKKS

stoichiometry N (HROB per MCM8-9 heterodimer): 1
Substance: HROB-FLAG (wild type HROB, homologous recombination factor with OB-fold) (from UniProt Q8N3J3-4 1-646) (natural protein)

— article PMC11055865
